This is an account of results in article PMC3397948, “Cytoplasmic Sulfurtransferases in the Purple Sulfur Bacterium Allochromatium vinosum: Evidence for Sulfur Transfer from DsrEFH to DsrC” (PLoS ONE, 2012).

One assay concerns the target T1, DsrEFH (Allochromatium vinosum, UniProt O87896).
T1 construct: gene dsrE; recombinant, amino-terminal His-tag; alpha2beta2gamma2 heterohexamer; with Intracellular sulfur oxidation protein DsrF; Intracellular sulfur oxidation protein DsrH
In words: MALDI-TOF mass spectrometry, mass increase (persulfide). In kind it is binding. The note with it: 2 mM NaSH, 1 h, 30°C, 50 mM Tris-HCl pH 7.5, 100 mM NaCl; covalent; at DsrE-Cys78.

Assay [1] concerns the target T2, DsrEFH from Allochromatium vinosum (DsrE2F2H2 heterohexamer), wild type (Allochromatium vinosum, UniProt O87896 1-130; O87897 1-136; O87898 1-102).
T2 construct: DsrE, subunit of DsrEFH, Allochromatium vinosum; conserved active-site Cys78; DsrF, subunit of DsrEFH, Allochromatium vinosum; DsrH, subunit of DsrEFH, Allochromatium vinosum; conserved Cys20; source: overproduced and purified as described earlier [22], [8], [3]; not shown: His-tag (subunit inferred: DsrE), N-terminal, kept; copies: 2 + 2 + 2
T2 sequence (looked up) 1: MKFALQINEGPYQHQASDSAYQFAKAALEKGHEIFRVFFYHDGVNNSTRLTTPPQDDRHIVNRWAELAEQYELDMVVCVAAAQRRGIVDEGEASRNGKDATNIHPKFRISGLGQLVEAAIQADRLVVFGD
T2 sequence (looked up) 2: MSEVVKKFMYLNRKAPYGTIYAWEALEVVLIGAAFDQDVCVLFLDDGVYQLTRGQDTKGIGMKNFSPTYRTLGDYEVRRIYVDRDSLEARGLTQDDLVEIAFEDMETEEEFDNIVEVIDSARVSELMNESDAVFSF
T2 sequence (looked up) 3: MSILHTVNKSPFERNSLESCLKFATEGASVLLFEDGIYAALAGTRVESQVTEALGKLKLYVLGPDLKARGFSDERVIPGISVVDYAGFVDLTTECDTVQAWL
In words: native gel or EMSA; Blue-native PAGE (10-15%), 4°C, 6 mA; DsrEFH pre-incubated with DsrC in 1:2 ratio as for the native gel; masses from a calibration curve of standards. To be noted: both partners purified. For orientation: Mobility shift assays separate free from complexed probe on a gel.

Assay [2] addresses T2, DsrEFH from Allochromatium vinosum …. In words: dynamic light scattering; DsrEFH (2 mg/ml) with or without DsrC (0.8 mg/ml), same ratio and conditions as for native gels, 30°C; apparent molecular mass from hydrodynamic diameter. The note with it: both partners purified.

Several values for one entry are separate records, joined by “and”; a condition that tells them apart may be missing. Equal entries are not always repeated.

Turning to `S` [sulfide], the “MALDI-TOF mass spectrometry, mass increase (persulfide)” value at DsrEFH was “The persulfuration was attained by incubation with sulfide as well as with cysteine and IscS”.

B1: DsrC from Allochromatium vinosum, wild type (natural protein, UniProt O87899 1-112, looked up)
chain: MADTIEVDGKQFAVDEEGYLSNLNDWVPGVADVMAKQDNLELTEEHWDIINFLREYYEEYQIAPAVRVLTKAVGKKLGKEKGNSKYLYSLFPYGPAKQACRFAGLPKPTGCV
notes: DsrC, Allochromatium vinosum; conserved Cys100 and Cys111 (Cys111 in the penultimate position of the protein); Reduced with 25 uM TCEP before SPR; also called DsrC wild type; DsrC wt; source: overproduced and purified as described earlier [22], [8], [3]; not shown: His-tag, N-terminal, kept
For B1, the “stoichiometry N” value in assay [1] was 1 DsrC per DsrE2F2H2 heterohexamer and 2 DsrC per DsrE2F2H2 heterohexamer; in assay [2], 1 DsrC:DsrEFH.
